Key:
[1] = biological target: T1, HVISTA; test: ELISA on coated antigen (0.25 µg/ml), HRP anti-human IgG Fc, OD450
T1 construct: unrelated control antigen; also called human B7-H5/Gi24/VISTA protein (Sino Biological; Cat. No. 13482-H08H); not shown: the vendor's polyhistidine tag
Excerpt: (§1) All of the recombinant human CEACAM-1/CD66a protein (R&D systems; Cat No. 2244-CM, HCCM1), recombinant human CEACAM-5/CD66e protein (R&D systems; Cat. No. 4128-CM, HCCM5), recombinant human CEACAM-6/CD66c protein (R&D systems; Cat. No. 3934-CM, HCCM6), recombinant human CEACAM-3/CD66d protein (Sino Biological; Cat. No. 11933-H08H, HCCM3), human B7-H5/Gi24/VISTA protein (Sino Biological; Cat. No. 13482-H08H, HVISTA), recombinant human CEACAM-1/CD66a protein Bulk (R&D systems; Cat. No. 2244-CM, HCCM1 (bulk)), recombinant human CEACAM1-N domain-Kappa protein (Mogam, in-house production, HCCM1-N domain-kappa), and BSA protein (2.5 μg each) were dissolved in 10 ml of PBS, respectively, and dispensed into a 96-well plate at 100 μl/well, which was incubated at 4° C. overnight. Thereafter, each well was treated with 300 μl of 1% (v/v) bovine serum albumin, and incubated at 37° C. for 1 hour.
(§2) The diluted antibodies were dispensed into each well coated with each protein at 100 μl/well, and incubated at 37° C. for 1 hour. Then, each well was washed 3 times with a washing buffer prepared by diluting 10 μl of Tween 20 (Sigma-Aldrich; Cat. No. P9146) in 990 μl of PBS. Thereafter, 2 μl of HRP-conjugated human anti-IgG-Fc antibody (anti-human IgG Fc, Sigma Cat. No. A0170) was diluted in 10 ml of PBS, added to the wells at 100 μl/well, and incubated for 1 hour.
(§3) After completion of the reaction, the wells were washed three times with the washing buffer, and 100 μl of TMB solution was added to each well to induce color development. Then, 100 μl of 2 M H₂SO₄ was added to each well to stop the reaction, and the absorbance was measured at a wavelength of 450 nm.

[2] = biological target: T2, BSA (bovine, UniProt P02769); test: as above
T2 construct: blank antigen; also called BSA protein; bovine serum albumin
T2 sequence (P02769 25-607 limits assumed): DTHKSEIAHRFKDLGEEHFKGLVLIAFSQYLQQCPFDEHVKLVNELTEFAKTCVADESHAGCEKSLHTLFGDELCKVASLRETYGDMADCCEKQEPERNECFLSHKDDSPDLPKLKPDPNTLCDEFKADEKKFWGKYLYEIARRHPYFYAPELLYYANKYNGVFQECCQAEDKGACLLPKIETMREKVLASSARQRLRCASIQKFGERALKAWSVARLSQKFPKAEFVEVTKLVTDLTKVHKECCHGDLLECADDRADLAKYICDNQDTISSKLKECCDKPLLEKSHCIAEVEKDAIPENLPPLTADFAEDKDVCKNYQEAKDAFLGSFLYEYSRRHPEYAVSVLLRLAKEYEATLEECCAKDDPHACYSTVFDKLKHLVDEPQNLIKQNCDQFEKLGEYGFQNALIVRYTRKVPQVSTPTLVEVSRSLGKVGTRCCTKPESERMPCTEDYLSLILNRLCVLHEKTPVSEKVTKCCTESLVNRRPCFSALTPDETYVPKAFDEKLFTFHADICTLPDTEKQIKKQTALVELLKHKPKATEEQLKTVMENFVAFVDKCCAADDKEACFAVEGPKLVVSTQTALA
Excerpt: as §1, §2, §3

[3] = biological target: T3, mCCM1; test: ELISA on coated antigen (0.25 µg/ml), HRP anti-human IgG Fab, OD450
T3 construct: also called mouse CCM1; mouse CEACAM1/CD66a protein (Sino Biological); not shown: the vendor's polyhistidine tag
T3 chain: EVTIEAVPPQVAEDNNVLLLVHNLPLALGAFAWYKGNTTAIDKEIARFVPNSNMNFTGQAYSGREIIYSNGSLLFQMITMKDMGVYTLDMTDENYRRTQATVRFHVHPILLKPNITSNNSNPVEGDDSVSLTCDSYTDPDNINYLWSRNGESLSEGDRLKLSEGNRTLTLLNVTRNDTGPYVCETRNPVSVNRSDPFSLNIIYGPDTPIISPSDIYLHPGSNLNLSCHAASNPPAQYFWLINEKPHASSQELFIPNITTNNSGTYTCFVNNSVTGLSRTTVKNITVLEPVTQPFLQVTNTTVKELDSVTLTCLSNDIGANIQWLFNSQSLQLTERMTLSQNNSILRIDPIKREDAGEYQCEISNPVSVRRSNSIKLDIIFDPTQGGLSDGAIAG
Excerpt: (§4) All of the recombinant human CEACAM-1/CD66a protein (R&D systems; Cat. No. 2244-CM, HCCM1), recombinant human CEACAM-5/CD66e protein (R&D systems; Cat. No. 4128-CM, HCCM5), recombinant human CEACAM-6/CD66c protein (R&D systems; Cat. No. 3934-CM, HCCM6), recombinant human CEACAM-3/CD66d protein (Sino Biological; Cat. No. 11933-H08H, HCCM3), recombinant mouse PD-1 Fc chimeric protein (R&D systems; Cat. No. 1021-PD, mPD-1-Fc), recombinant CEACAM1-Fc (IgG4) protein (Mogam, in-house production, HCCM1-Fc), recombinant human CEACAM-1/CD66a protein Bulk (R&D systems; Cat. No. 2244-CM, HCCM1 (bulk)) and mouse CEACAM1/CD66a protein (Sino Biological; Cat. No. 50571-M08H, mouse CCM1) (2.5 μg each) were dissolved in 10 ml of PBS, respectively and dispensed into a 96-well plate (Nunc; Cat. No. 467679) at 100 μl/well, which was incubated overnight at 4° C. Thereafter, each well was treated with 300 μl of 1% (v/v) bovine serum albumin, which was incubated at 37° C. for 1 hour.
(§5) The diluted antibodies were dispensed into each well coated with each protein at 100 μl/well, which was incubated at 37° C. for 1 hour. Then, each well was washed 3 times with a washing buffer prepared by diluting 10 μl of Tween 20 (Sigma-Aldrich; Cat. No. P9146) in 990 μl of PBS. Thereafter, 2 μl of HRP-conjugated human anti-IgG-Fab antibody (anti-human IgG Fab; Sigma; Cat. No. A0293) was diluted in 10 ml of PBS, added to the wells at 100 μl/well, and incubated for 1 hour.
as §3

[4] = biological target: T4, recombinant human CEACAM-6/CD66c protein (R&D systems; Cat. No. 3934-CM) (human, UniProt P40199 35-320); test: as above
T4 construct: Bought protein; also called HCCM6
T4 sequence (looked up): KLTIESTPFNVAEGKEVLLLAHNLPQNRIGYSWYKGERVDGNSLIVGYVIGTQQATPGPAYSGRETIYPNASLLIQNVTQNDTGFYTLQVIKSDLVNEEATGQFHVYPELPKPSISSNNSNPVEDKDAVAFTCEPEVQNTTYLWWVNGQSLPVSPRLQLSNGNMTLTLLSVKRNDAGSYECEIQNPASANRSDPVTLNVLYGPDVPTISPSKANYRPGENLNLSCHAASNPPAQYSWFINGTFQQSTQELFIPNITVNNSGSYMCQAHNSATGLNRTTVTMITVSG
Excerpt: as §4, §5, §3

T1 sequence (chain, as listed by the source limits assumed): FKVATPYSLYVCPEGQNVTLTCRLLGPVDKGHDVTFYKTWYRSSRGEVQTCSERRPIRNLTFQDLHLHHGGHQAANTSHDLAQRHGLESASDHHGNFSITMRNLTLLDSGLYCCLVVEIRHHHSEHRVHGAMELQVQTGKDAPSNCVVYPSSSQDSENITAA

B1: C15 (antibody, human IgG4 S228P, lambda, V domains shown)
VH: EVQLLESGGGLVQPGGSLRLSCAASGFTFSSYSMSWVRQAPGKGLEWVSSISPNGGNKYYADSVKGRFTISRDNSKNTLYLQMNSLGAEDTAVYYCAKDPYNIYQPLFDYWGQGTLVTVSS
VL: QSVLTQPLSASGTPGQRVTISCSGSSSNIGNNYVNWYQQLPGTAPKLLIYANSNRPSGVPDRFSGSKSGTSASLAISGLRSEEEADYYCGTWDASLSAYVFGGGTKLTVLG
B1: no binding (tested: 3 µg/ml (single concentration)) [1]; no binding (tested: 3 µg/ml (single concentration)) [2]; no binding (tested: 3 µg/ml (single concentration)) [3]. B1: no binding (tested: 3 µg/ml (single concentration)) [4].

B2: C19 (antibody, human IgG4 S228P, lambda, V domains shown)
VH: EVQLLESGGGLVQPGGSLRLSCAASGFTFSGYAMSWVRQAPGKGLEWVSGIYHDGGSTYYADSVKGRFTISRDNSKNTLYLQMNSLRAEDTAVYYCARVTVLCTTYGCSSYDGMDVWGQGTLVTVSS
VL: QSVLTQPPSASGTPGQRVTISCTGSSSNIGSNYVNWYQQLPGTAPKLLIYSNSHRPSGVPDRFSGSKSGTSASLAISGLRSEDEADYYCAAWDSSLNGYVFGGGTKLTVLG
B2: no binding (tested: 3 µg/ml (single concentration)) [1]; no binding (tested: 3 µg/ml (single concentration)) [2]; no binding (tested: 3 µg/ml (single concentration)) [3]. B2: no binding (tested: 3 µg/ml (single concentration)) [4].

B3: C18 (antibody, human IgG4 S228P, lambda, V domains shown)
VH: EVQLLESGGGLVQPGGSLRLSCAASGFTFSNYDMSWVRQAPGKGLEWVSGISHSSGSKYYADSVKGRFTISRDNSKNTLYLQMNSLRAEDTAVYYCARDPLPCLIPKCSYYYAMDVWGQGTLVTVSS
VL: QSVLTQPPSAPGTPGQRVTISCSGSSSNIGSNAVTWYQQLPGTAPKLLIYADSHRPSGVPDRFSGSKSGTSASLAISGLRSEDEADYYCGSWDDSLNAYVFGGGTKLTVLG
B3: no binding (tested: 3 µg/ml (single concentration)) [1]; no binding (tested: 3 µg/ml (single concentration)) [2]; no binding (tested: 3 µg/ml (single concentration)) [3]. B3: no binding (tested: 3 µg/ml (single concentration)) [4].

B4: C26 (antibody, human IgG4 S228P, lambda, V domains shown)
VH: EVQLLESGGGLVQPGGSLRLSCAASGFTFSGYDMSWVRQAPGKGLEWVSWISYGGGSIYYADSVKGRFTISRDNSKNTLYLQMNSLRAEDTAVYYCAKDRLPQKAVRHSYANGMDVWGQGTLVTVSS
VL: QSVLTQPPSASGTPGQRVTISCSGSSSNIGNNYVTWYQQLPGTAPKLLIYADSHRPSGVPDRFSGSKSGTSASLAISGLRSEDEADYYCGAWDYSLSGYVFGGGTKLTVLG
B4: no binding (tested: 3 µg/ml (single concentration)) [1]; no binding (tested: 3 µg/ml (single concentration)) [2]; no binding (tested: 3 µg/ml (single concentration)) [3]. B4: no binding (tested: 3 µg/ml (single concentration)) [4].

B5: C22 (antibody, human IgG4 S228P, lambda, V domains shown)
VH: EVQLLESGGGLVQPGGSLRLSCAASGFTFSDYDMSWVRQAPGKGLEWVSMIYSGSSSKYYADSVKGRFTISRDNSKNTLYLQMNSLRAEDTAVYYCAKAPLPFYFRPKSYYYAMDVWGQGTLVTVSS
VL: QSVLTQPPSASGTPGQRVTISCSGSSSNIGSNNVTWYQQLPGTAPKLLIYANSHRPSGVPDRFSGSKSGTSASLAISGLRSEDEADYYCGSWDSSLNAYVFGGGTKLTVLG
B5: no binding (tested: 3 µg/ml (single concentration)) [1]; no binding (tested: 3 µg/ml (single concentration)) [2]; no binding (tested: 3 µg/ml (single concentration)) [3]. B5: no binding (tested: 3 µg/ml (single concentration)) [4].

B6: C17 (antibody, human IgG4 S228P, lambda, V domains shown)
VH: EVQLLESGGGLVQPGGSLRLSCAASGFTFSDYSMSWVRQAPGKGLEWVSVIYPDDGNTYYADSVKGRFTISRDNSKNTLYLQMNSLRAEDTAVYYCARGSIWWLSLIPSSYNAMDVWGQGTLVAVSS
VL: QSVLTQPPSASGTPGQRVTISCSGSSSNIGNNAVNWYQQLPGTAPKLLIYANSHRPSGVPDRFSGSKSGTSASLAISGLRSEDEADYYCGAWDASLNGYVFGGGTKLTVLG
B6: no binding (tested: 3 µg/ml (single concentration)) [1]; no binding (tested: 3 µg/ml (single concentration)) [2]; no binding (tested: 3 µg/ml (single concentration)) [3]. B6: no binding (tested: 3 µg/ml (single concentration)) [4].

B7: C25 (antibody, human IgG4 S228P, lambda, V domains shown)
VH: EVQLLESGGGLVQPGGSLRLSCAASGFTFSNYAMSWVRQAPGKGLEWVSVISHGGGSIYYADSVKGRLTISRDNSKNTLYLQMNSLRAEDTAVYYCARDPTKGYAPTFDYWGQGTLVTVSS
VL: QSVLTQPPSASGTPGQRVTISCSGSSSNIGNNYVSWYQQLPGTAPKLLIYADSKRPSGVPDRFSGSKSGTSASLAISGLRSEDEADYYCGAWDASLNGYVFGGGTKLTVLG
notes: Made in ExpiHEK293F cells, protein A purified. huIgG4 is the isotype control and anti-huIgG4 the detection reagent; the isotype is not otherwise stated; also called anti-CEACAM1 antibody C25
B7: no binding (tested: 3 µg/ml (single concentration)) [1]; no binding (tested: 3 µg/ml (single concentration)) [2]; no binding (tested: 3 µg/ml (single concentration)) [3]. B7: no binding (tested: 3 µg/ml (single concentration)) [4].

Reference: patent US20200109196A1 (MOGAM INSTITUTE FOR BIOMEDICAL RESEARCH, published 2020)
